± gives the uncertainty stated by the source.

The nature of this data set: amyloid nucleation score (Sup35N fusion, yeast selection) (log enrichment); library NNK2; higher = more nucleation; inactive = no reads after selection. In short, it runs like this:
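The nucleation score equals the log enrichment of output over input reads from DiMSum, centred on the mode score of non-aggregating sequences. It was computed only for sequences with 100 or more input reads. The reads came from Illumina sequencing of plasmid inserts from psi-negative yeast expressing Sup35N fused to peptides of 20 random codons, induced with 100 μM copper sulfate for 24 hours and grown 7 days at 30°C without adenine and uracil.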
In turn, VRDNHNRSGQVRGGADLN yielded an amyloid nucleation score of 0.822 ± 0.34. Take VRFEELTEY: the amyloid nucleation score is -0.171 ± 1.

Consider VRFHVWDKGHRMI, for which the amyloid nucleation score was determined as 1.47 ± 0.18. VRFWSLMCYACFSQSGSRVR gave an amyloid nucleation score of 3.91 ± 0.084.

As to VRFYDLFFKVGRQVYCLNNS, the amyloid nucleation score was -0.694 ± 0.55.

VRGAVSLL gave an amyloid nucleation score of -0.64 ± 0.29. In turn, VRGRVAHRRMGSTFVISAES returned an amyloid nucleation score of 0.266 ± 0.74. VRLEPSHRVCRRVRLTSILR: the amyloid nucleation score entry is “inactive”. The value for VRPRGTKRCFFGRNHWRSSF was 0.428 ± 0.66.

Substance VRSMTELGPRLVAGK yielded an amyloid nucleation score of 1.45 ± 0.33. The value for VRTWESIVCCI was 4.14 ± 0.051. The value for VSCTWFGS was 0.797 ± 0.28; that for VSDSNFNNGRYWLSVWRDVV was 4.25 ± 0.067. Substance VSFRYCLYYYTENVVHMIVK had an amyloid nucleation score of -1.85 ± 0.54. Turning to VSFTARSRHVDGGLSS, the amyloid nucleation score came out at 1.04 ± 0.32.

VSKRNDLQTSFLYMMHLALQ: the amyloid nucleation score was -0.536 ± 1. The value for VSLGDYASAGFLMWIRLHVW was -0.03 ± 0.56. As to VSLINFFVNL, the amyloid nucleation score was 8.418 ± 0.056. As to VSLIVYKGHKRGWVYRVSRR, the amyloid nucleation score is 0.42 ± 0.65. The value for VSLLFTPTNEYIWGTPLALR was “inactive”; that for VSLMKYQVELGNWKEPTCLG was 0.14 ± 0.56; that for VSLSERLTHLLCIRF was 0.343 ± 0.64.

Substance VSLSLC came in with an amyloid nucleation score of -0.288 ± 0.5. As for VSQSDMDLHWLVYRVYWYVF, the amyloid nucleation score was -0.893 ± 0.44. Turning to VSSTSLNSKDQWCCCERGSP, the amyloid nucleation score was found to be 0.619 ± 0.64. The value for VSTIIWCIR was 5.143 ± 0.047; that for VSVARSSFARKDYCEFFRPG was 1.17 ± 0.28; that for VSVDHSDFRLNAVSE was 1 ± 0.17. In turn, VSVGACTHTLYKVRALSQGV came in with an amyloid nucleation score of 0.486 ± 0.26. The substance VSWTPWESIFSGVMV yielded an amyloid nucleation score of -0.568 ± 0.61. The substance VSYVYYSM displayed an amyloid nucleation score of -0.242 ± 1.1. The value for VTFYGGAYSENYLVRCYALN was 4.47 ± 0.057; that for VTMYPFRRIVGRQQLMAWLY was 0.973 ± 0.38; that for VTNCNPDRW was -0.149 ± 0.63.

In turn, VTNVCGWRTEGWYDPGSAKT registered an amyloid nucleation score of 1.13 ± 0.33.

Substance VTNVSQISNSRNVMERSIMF yielded an amyloid nucleation score of -1.2 ± 0.41.

The substance VTNYVEFCTGFRICGVSLPC returned an amyloid nucleation score of 8.387 ± 0.036. Take VTPTEGCSVSHVRSRSLKNA: the amyloid nucleation score was -0.511 ± 0.49.

In turn, VTPTFCETLVKPLHALHTNC had an amyloid nucleation score of -1.22 ± 0.62.

With VTRHLVVLNKYKWLGRLSTI, the amyloid nucleation score was -1.04 ± 0.76. Regarding VTRSLLLCHFSTCCFSALTW, the amyloid nucleation score was -0.086 ± 0.32. With VTSLHSYSMMFPPMWMSNQS the figure was 1.54 ± 0.32. The value for VTSYHFRMSCAVREALSSRY was 4.26 ± 0.055. In the case of VTTMRNSFKFYAIVMGLCSF, the amyloid nucleation score came out at 0.272 ± 0.65. The value for VTVLTGVG was 4.79 ± 0.058; that for VTVMTRLDFSTRSSATKPHG was 5.667 ± 0.044. The value for VTYDCL was “inactive”; that for VTYFNVYSYCKYSAKGRCAS was 6.22 ± 0.081.

In turn, VVFNFFCPNHGAVTMFSCFH registered an amyloid nucleation score of 8.838 ± 0.03. The value for VVFVCN was “inactive”; that for VVILFVLGLVNPELS was 0.649 ± 0.55; that for VVKDLRT was 1.91 ± 0.48.

In turn, VVLPFGMHAWYTKDNVEISS yielded an amyloid nucleation score of 0.181 ± 0.15. With VVLSCFLQRAPQVYSLF, the amyloid nucleation score is -0.821 ± 1.1.

VVMHQSAVCYEHEMTLVRRF had an amyloid nucleation score of 0.027 ± 1. Regarding VVMMSGYILTSTSLVYYHFY, the amyloid nucleation score was 0.005 ± 0.54. VVNSGICSYRCFTVGQVTYK returned an amyloid nucleation score of -0.553 ± 0.55.

The values are drawn from the supplement of paper PMC12042874.
